# B1: Receptor-interacting serine/threonine-protein kinase 3 (Homo sapiens), Q9Y572 (parent)
# chain: MSCVKLWPSGAPAPLVSIEELENQELVGKGGFGTVFRAQHRKWGYDVAVKIVNSKAISREVKAMASLDNEFVLRLEGVIEKVNWDQDPKPALVTKFMENGSLSGLLQSQCPRPWPLLCRLLKEVVLGMFYLHDQNPVLLHRDLKPSNVLLDPELHVKLADFGLSTFQGGSQSGTGSGEPGGTLGYLAPELFVNVNRKASTASDVYSFGILMWAVLAGREVELPTEPSLVYEAVCNRQNRPSLAELPQAGPETPGLEGLKELMQLCWSSEPKDRPSFQECLPKTDEVFQMVENNMNAAVSTVKDFLSQLRSSNRRFSIPESGQGGTEMDGFRRTIENQHSRNDVMVSEWLNKLNLEEPPSSVPKKCPSLTKRSRAQEEQVPQAWTAGTSSDSMAQPPQTPETSTFRNQMPSPTSTGTPSPGPRGNQGAERQGMNWSCRTPEPNPVTGRPLVNIYNCSGVQVGDNNYLTMQQTTALPTWGLAPSGKGRGLQHPPPVGSQEGPKDPEAWSRPQGWYNHSGK
# partner: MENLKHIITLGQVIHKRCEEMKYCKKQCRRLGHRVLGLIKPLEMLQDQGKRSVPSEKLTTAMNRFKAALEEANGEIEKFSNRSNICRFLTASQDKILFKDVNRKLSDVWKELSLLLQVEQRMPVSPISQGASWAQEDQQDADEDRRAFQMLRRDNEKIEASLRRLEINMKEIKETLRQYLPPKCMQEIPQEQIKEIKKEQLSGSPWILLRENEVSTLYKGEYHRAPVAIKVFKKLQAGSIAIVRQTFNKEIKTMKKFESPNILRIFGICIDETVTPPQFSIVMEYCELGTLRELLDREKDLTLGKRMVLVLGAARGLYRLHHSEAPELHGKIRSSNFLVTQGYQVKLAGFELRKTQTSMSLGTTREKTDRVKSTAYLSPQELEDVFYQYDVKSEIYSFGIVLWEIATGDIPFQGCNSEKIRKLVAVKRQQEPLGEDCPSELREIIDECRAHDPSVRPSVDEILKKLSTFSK
# B2: Mixed lineage kinase domain-like protein (Homo sapiens), Q8NB16 (parent)
# chain: B1 partner
# Variants of: B1
# Settings: with mlkl_human MLKL
row,effect of a mutation on the interaction,Variant
1,disrupting interaction,D142N
2,disrupting interaction,S227A

# Variants of: B1
# Settings: with mlkl_human MLKL
# Remark: another data set of the same source
row,effect of a mutation on the interaction,Variant
1,decreasing interaction,K50A

# Variants of: B2
# Settings: with ripk3_human RIPK3, Q9Y572
row,effect of a mutation on the interaction,Variant
1,disrupting interaction,T357A;S358A
2,decreasing interaction,T357E;S358D

# Reference: IntAct's records for PubMed 22265413
